Experimental data published in patent publication US20240293570A1 (priority 2021, published 2024).
Like-named read-outs stand apart in the source and are kept apart here. *1 amine or outer side, *2 acyl side, *3 side chain or, on linkers, in order; H or OH if unused. Where a SMILES comes first, the peptide text is derived from it. [ ]: non-standard residue; d: D form. The star is where a group is joined. MaleimidoPEG4propanoyl = O=C1C=CC(=O)N1CCOCCOCCOCCOCCC(=O)*; X2 = CO[C@@H]([C@H]1CCCN1[*:1])[C@@H](C)C(=O)[*:2]; Dil = CC[C@H](C)[C@H](NC)[C@@H](CC(=O)O)OC; X1 = O=C(CN1CCOCCN([*:1])CCOCC1)[*:2]; PABC = O=C(OCc1ccc(N[*:1])cc1)[*:2]; X3 = C[C@@H](N*)[C@@H](O)c1ccccc1; NMeV = CN[C@H](C(=O)O)C(C)C

Key:
[1] = Polymer (high molecular component) content of antibody-drug conjugates by SE-HPLC; assay type: physicochemical; settings: ADC with Her2 antibody
Description: (§1) Polymers (high molecular components) of the antibody-drug conjugates were tested using molecular exclusion high-performance liquid chromatography (SE-HPLC). A Biocore SEC chromatographic column (7.8×300 mm, […]) was used, and the mobile phase was 50 mM phosphate containing 300 mM sodium chloride (pH 6.8), with a flow rate of 0.5 mL/min. Samples of […] and 10 μl were injected. […] The polymer content of an antibody-drug conjugate was calculated using an area normalization method.

[2] = Naked antibody content of antibody-drug conjugates by hydrophobic interaction chromatography (HIC); assay type: physicochemical; settings: ADC with Her2 antibody
Description: The content of naked antibodies in the antibody-drug conjugate was tested using hydrophobic interaction chromatography (HIC). A Biocore HIC-Butyl chromatographic column (4.6×150 mm, 5 μm) was used. The mobile phase A was a 100 mM phosphate aqueous solution containing 2 M ammonium sulfate (pH 7.0), and the mobile phase B was a 100 mM phosphate aqueous solution (pH 7.0): isopropanol=80:20 (V/V). Samples of 50 μg and 10 μl were injected. The mobile phase A at the flow rate of 1 mL/min ran at 100% for 3 minutes. Within 3-25 minutes, the mobile phase B ran from […] to 100%, while the mobile phase B decreased to 0% at 25.1 and ran to 30 minutes. […] The naked antibody content of the antibody-drug conjugate was calculated using an area normalization method based on the retention time of a naked antibody peak located by the antibody of the antibody-drug conjugate.

[3] = assay type: physicochemical; settings: ADC with Her2 antibody, RP-HPLC-MS
Description: (§2) A drug-antibody conjugating ratio (also known as drug-antibody ratio, abbreviated as DAR) of the antibody-drug conjugate was tested using reversed-phase high-performance liquid chromatography-mass chromatography (RP-HPLC-MS). The ADC sample was diluted with 50 mmol/L Tris buffer (pH 8.0) to 1 mg/ml. A fresh dithiothreitol (DTT) stock solution was added to achieve a final DTT concentration of 50 mmol/L. Incubation was performed at 37° C. for 30 minutes. A PLRP-S chromatographic column (1000 Å pores, 2.1×50 mm, 5) μm) was used, and the column temperature was 70° C. The flow rate was 0.25 mL/min. […] of sample was injected; the mobile phase A was an aqueous solution of 0.1% formic acid (V/V) and 0.025% trifluoroacetic acid (V/V), and the mobile phase B was an acetonitrile solution of 0.1% formic acid (V/V) and 0.025% trifluoroacetic acid (V/V); the running time was 0-3 minutes, where 27% of mobile phase B ran for 3 minutes, and the mobile phase B ran from 27% to 49% within 3-25 minutes, from 49% to 95% within 25-26 minutes, at 95% within […], from 95% to 27% within 30-31.5 minutes, and at 27% for 31.5-45 minutes. […] Mass spectrometry drying gas was at a temperature of 350° C. and a flow rate of 7.0 L/min, the pressure of an atomizer was 40 psi, capillary voltage was positive 3000V and negative 3000V, and the mass range was 500-1600 m/z. The molecular weight of each mass spectrometry peak (ranging from 20000 to 70000) was calculated by deconvolution and compared with light and heavy chain molecular weights of un-conjugated antibodies to calculate a drug load at each peak, so as to determine the load of a corresponding ultraviolet peak. Area percentages of heavy and light chain ultraviolet peaks were calculated through integration, and a weighted average DAR of the antibody-drug conjugate was calculated by combining the area percentages with the drug load distribution of each peak.

[4] = Stability (placement) test of ADCs at 40° C. in dark for 14 days, DAR and polymer content; assay type: physicochemical
Description: as §1, §2
Stability testing method: The stability of the obtained ADCs was tested for 14 days. The ADCs were placed at 40° C. in dark. Sampling points were days 0, 7, and 14. The polymer content and DAR value of samples at different sampling points were tested according to the method in Experimental Example 1.

Structure (SMILES)	Polymer content (%) [1] [%]	Naked antibody content (%) [2] [%]	DAR [3]	DAR ([4]; Day 0, 40° C. in dark)	Polymer content (%) ([4]; Day 0, 40° C. in dark)	DAR ([4]; Day 7, 40° C. in dark)	Polymer content (%) ([4]; Day 7, 40° C. in dark)	DAR ([4]; Day 14, 40° C. in dark)	Polymer content (%) ([4]; Day 14, 40° C. in dark)
CC[C@H](C)[C@@H]([C@@H](CC(=O)N1CCC[C@@H]1[C@H](OC)[C@@H](C)C(=O)N[C@H](C)[C@@H](O)c1ccccc1)OC)N(C)C(=O)[C@@H](NC(=O)[C@H](C(C)C)N(C)C(=O)OCc1ccc(NC(=O)CNC(=O)[C@H](Cc2ccccc2)NC(=O)CNC(=O)CNC(=O)CN2CCOCCN(C(=O)CCOCCOCCOCCOCCN3C(=O)C=CC3=O)CCOCC2)cc1)C(C)C [Example 85] (MaleimidoPEG4propanoyl-[X1]GGFG[PABC][NMeV]V[Dil][X2]-X3)	1.43	1.98	4.04	4.04	1.43	4.08	1.48	4.00	1.45
C=C1C[C@@H]2CC[C@@]34C[C@H]5OC6C(O[C@H]7CC[C@H](CC(=O)C[C@@H]8[C@@H](OC)[C@@H](C[C@H](O)CNC(=O)CNC(=O)[C@H](Cc9ccccc9)NC(=O)CNC(=O)CNC(=O)CCOCCOCCN(CCOCCOCCC(=O)NCC(=O)NCC(=O)N[C@@H](Cc9ccccc9)C(=O)NCC(=O)NCOCC(=O)N[C@H]9CCc%10c(C)c(F)cc%11nc%12c(c9c%10%11)Cn9c-%12cc%10c(c9=O)COC(=O)[C@]%10(O)CC)C(=O)CN9CCOCCOCCOCCOCCN(C(=O)CCOCCOCCOCCOCCOCCOCCOCCOCCN%10C(=O)C=CC%10=O)CCOCCOCCOCCOCC9)O[C@H]8C[C@H]8O[C@@H](CC[C@@H]1O2)C[C@@H](C)C8=C)O[C@@H]7[C@@H]6O3)[C@H]5O4 [Example 15]	1.20	3.63	4.07	4.07	1.20	4.07	1.21	4.11	1.27
CC[C@@]1(O)C(=O)OCc2c1cc1n(c2=O)Cc2c-1nc1cc(F)c(C)c3c1c2[C@@H](NC(=O)COCNC(=O)CNC(=O)CNC(=O)CNC(=O)CN1CCOCCN(C(=O)CCN2C(=O)C=CC2=O)CCOCC1)CC3 [Example 28]	0.56	2.76	3.84	3.84	0.56	3.89	0.57	3.82	0.65
C=C1C[C@@H]2CC[C@@]34C[C@H]5OC6C(C[C@H]7CC[C@H](CC(=O)C[C@@H]8[C@@H](OC)[C@@H](C[C@H](O)CNC(=O)CNC(=O)[C@H](Cc9ccccc9)NC(=O)CNC(=O)CNC(=O)CCC(=O)N9CCOCCN(C(=O)CCN%10C(=O)C=CC%10=O)CCOCC9)O[C@H]8C[C@H]8O[C@@H](CC[C@@H]1O2)C[C@@H](C)C8=C)O[C@@H]7[C@@H]6O3)[C@H]5O4 [Example 26]	0.70	1.26	3.92	3.92	0.70	3.92	0.72	3.96	0.66
C=C1C[C@@H]2CC[C@@]34C[C@H]5OC6C(O[C@H]7CC[C@H](CC(=O)C[C@@H]8[C@@H](OC)[C@@H](C[C@H](O)CNC(=O)CNC(=O)[C@H](Cc9ccccc9)NC(=O)CNC(=O)CNC(=O)CN9CCOCCOCCN(C(=O)CCCCCN%10C(=O)C=CC%10=O)CCOCCOCC9)O[C@H]8C[C@H]8O[C@@H](CC[C@@H]1O2)C[C@@H](C)C8=C)O[C@@H]7[C@@H]6O3)[C@H]5O4 [Example 39]	0.90	0.00	4.30	4.30	0.90	4.32	0.92	4.30	0.98
CCc1c2c(nc3ccc(O)cc13)-c1cc3c(c(=O)n1C2)CCC(=O)[C@@]3(CC)OC(=O)N(C)CCN(C)C(=O)COCNC(=O)CNC(=O)[C@H](Cc1ccccc1)NC(=O)CNC(=O)CNC(=O)CN1CCOCCN(C(=O)CCN2C(=O)C=CC2=O)CCOCC1 [Example 23]	0.41	0.00	4.12	4.12	0.41	4.15	0.45	4.16	0.56
C=C1C[C@@H]2CC[C@@]34C[C@H]5OC6C(O[C@H]7CC[C@H](CC(=O)C[C@@H]8[C@@H](OC)[C@@H](C[C@H](O)CNC(=O)CNC(=O)[C@H](Cc9ccccc9)NC(=O)CNC(=O)CNC(=O)CCOCCOCCN(CCOCCOCCC(=O)NCC(=O)NCC(=O)N[C@@H](Cc9ccccc9)C(=O)NCC(=O)NCOCC(=O)N[C@H]9CCc%10c(C)c(F)cc%11nc%12c(c9c%10%11)Cn9c-%12cc%10c(c9=O)COC(=O)[C@]%10(O)CC)C9CCC(NC(=O)CN%10CCOCCOCCOCCN(C(=O)CCOCCOCCOCCOCCN%11C(=O)C=CC%11=O)CCOCCOCCOCC%10)CC9)O[C@H]8C[C@H]8O[C@@H](CC[C@@H]1O2)C[C@@H](C)C8=C)O[C@@H]7[C@@H]6O3)[C@H]5O4 (stereo partly drawn) [Example 20]	1.48	4.23	3.85	3.85	1.48	3.87	1.50	3.89	1.43
C=C1C[C@@H]2CC[C@@]34C[C@H]5OC6C(O[C@H]7CC[C@H](CC(=O)C[C@@H]8[C@@H](OC)[C@@H](C[C@H](O)CNC(=O)CNC(=O)[C@H](Cc9ccccc9)NC(=O)CNC(=O)CNC(=O)CN9CCOCCOCCN(C(=O)CCCC%10C(=O)C=CC%10=O)CCOCCOCC9)O[C@H]8C[C@H]8O[C@@H](CC[C@@H]1O2)C[C@@H](C)C8=C)O[C@@H]7[C@@H]6O3)[C@H]5O4 [Example 41]	1.52	5.05	3.84	3.84	1.52	3.81	1.53	3.81	1.59
C=C1C[C@@H]2CC[C@@]34C[C@H]5OC6C(O[C@H]7CC[C@H](CC(=O)C[C@@H]8[C@@H](OC)[C@@H](C[C@H](O)CNC(=O)CNC(=O)[C@H](Cc9ccccc9)NC(=O)CNC(=O)CN9CCOCCOCCN(C(=O)CCCC%10C(=O)C=CC%10=O)CCOCCOCC9)O[C@H]8C[C@H]8O[C@@H](CC[C@@H]1O2)C[C@@H](C)C8=C)O[C@@H]7[C@@H]6O3)[C@H]5O4 [Example 42]	1.25	1.06	4.12	4.12	1.25	4.11	1.28	4.08	1.26
C=C1C[C@@H]2CC[C@@]34C[C@H]5OC6C(C[C@H]7CC[C@H](CC(=O)C[C@@H]8[C@@H](OC)[C@@H](CC(O)CNC(=O)CNC(=O)[C@H](Cc9ccccc9)NC(=O)CNC(=O)CNC(=O)CN9CCN%10CCN(CCN(CC(=O)NCC(=O)NCC(=O)N[C@@H](Cc%11ccccc%11)C(=O)NCC(=O)NCOCC(=O)N[C@H]%11CCc%12c(C)c(F)cc%13nc%14c(c%11c%12%13)Cn%11c-%14cc%12c(c%11=O)COC(=O)[C@]%12(O)CC)CC9)CCN(C(=O)CCCCCN9C(=O)C=CC9=O)CC%10)O[C@H]8C[C@H]8O[C@@H](CC[C@@H]1O2)C[C@@H](C)C8=C)O[C@@H]7[C@@H]6O3)[C@H]5O4 (stereo partly drawn) [Example 59]	1.18	2.57	3.83	3.83	1.18	3.83	1.22	3.78	1.27
